{
  "source": "IntAct's records for PubMed 25843002",
  "biological_target": "tr10b_human TNFRSF10B (UniProt O14763)",
  "data": [
    {"substance": "Ras-related C3 botulinum toxin substrate 1 (Homo sapiens) (from UniProt P63000) T17N", "values": [
      {"measurement": "effect of a mutation on the interaction", "result": "decreasing interaction strength"}
    ]}
  ]
}
